The data set deals with T1, NikR (Helicobacter pylori 26695) (UniProt O25896).
T1 sequence: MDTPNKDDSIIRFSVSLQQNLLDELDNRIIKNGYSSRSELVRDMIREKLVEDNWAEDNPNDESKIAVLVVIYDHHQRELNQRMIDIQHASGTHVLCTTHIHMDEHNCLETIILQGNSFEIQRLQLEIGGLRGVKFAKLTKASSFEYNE
The data set can be described thus: EMSA.

Take “TAAGCTTTTTTCTTTTTTTTTGATTTAATACTAGGTATAATTTTAATTCCACCTAACAAGGAAAAGCTATGAAAGTAACACAAGGCATTGCTAACGACTTTTTTGCCCTAACAAACACGA (double strand) [Probe-flgR 2]”: the binding result was “binds”.
As for “TAGCAATGTTTTGATTTACTAAGATTAACAGAAGCGTTCATTAACTAATTATTATTTAAAATGAATTAGTGTTATATCTTTGAAGCGCTATAAAATCGTTATTAGAAGTGCGTTTAATAC (double strand) [OPhp0073]”, the entry is “binds”; as for “TTGGGTTGATTTAACTCAAGCAAATTTTCTTCAATCCTAACAAATTTGGCTGCAAATTAAAAAATTTAAGCTTTTTTCTTTTTTTTTGATTTAATACTAGGTATAATTTTAATTCCACCT (double strand) [Probe-flgR 1]”, “binds”.

These data come from article PMC12622350.
